# From patent US9371374 (AbbVie / Abbott, dated 2016)
# Numbering of substitutions follows the chain as printed.
# B1: HCV 208B-672 (antibody, V domains shown)
# VH: EVKLVESGGSLVQPGGSLKLSCAASGFNFNTYAMSWVRQTPEKRLEWVAYISNGGGNTYYVDTVKGRFTISRDNAKNTLYLRMSSLKSEDTAMYYCARHGLYWGYSMDYWGQGTSVTVSS
# VL: DIQMTQSPSSLSASLGERVSLTCRASQDIGGSINWLQQEPDGTIKRLIYATSSLDSGVPKRFSGSRSGSDYSLTISSLESEDFVDYYCLQYASSPPTFGGGTKLEIKR
# B2: HCV 208A-877 (antibody, V domains shown)
# VH: QLQQSGPELVKPGASVKISCKTSGYTFTENAMHWVKQSRGKSLEWIGGVNPNNGDTVYTQKFKGKATLTVAKSSSTAYMELRTMTCEESTVYYCASREPDFFDYWGQGSSVTVSS
# VL: QIVLTQSPAIMSVSPGEKVSMTCSASSSVTYMHWYQQKSGTSPKRWIYDTSELASGVPARFSGSGSGTTYSLTISSMEAEDAATYYCQQWSNKPLTFGAGTKLELKR
# B3: HCV 208A-352 (antibody, V domains shown)
# VH: QGQMQQSGAELVKPGASVKLSCKTSGFTFSSSFISWLKQKPGQSLEWIAWIYAGTGNTNYNQKFTDKAQLTVDTSSSTAYMQFSSLTTEDSAIYYCAISGTGFTYWGQGTLVTVSA
# VL: DVLMAQTPLSLPVTLGDQASISCRSSQSLVHSNGNTYLEWFLQKPGQSPKLLIYNVSNRFSGVPDRFSGSGSGTDFTLKISRVEAEDLGVYYCFQGSHVPLTFGSGTKLEIKR
# B4: HCV 208B-471 (antibody, V domains shown)
# VH: QGQLQQSGPVLVKPGASEILYCKTSGFTFSSTYISWLKQKPGQSLEWIAWIYAGTGATNYNQKFTGKAQLTVDASSNTAYMHFSGLTPEDSAIYYCAISGAGVYWGQGTLVTVSA
# VL: B3 VL with L3V, A5T, T14S, V30L, F41Y, K50N, T77A, E84G, S105A, I111L
# B5: HCV 208B-1024 (antibody, V domains shown)
# VH: EVQLVESGGDLVKPGGSLKLSCAASGFTFSNYGMSWVRQTPDKRLEWVATISSGGSYSYYPDSVKGRFTISRDNAKNILYLQMSSLKSEDTAMYYCASLYYGYGDYWGQGTAFTVSS
# VL: B3 VL with A5T, T14S, L29I, F41Y, P45L, N55R, L101W, S105G
# B6: HCV 208A-134 (antibody, V domains shown)
# VH: B3 VH with V12A, F33Y, F83L
# VL: EVLMTQSPLSLPVSLGDQASISCRSSQSLEHTNGNTYLEWFLQRPGQPPKLLIYKVSSRFSGVPDRFSGSGSGTDFTLKISRVEAEDLGVYYCFQGSHVPFTFGSGTKLAIKR
# B7: HCV 208B-281 (antibody, V domains shown)
# VH: B3 VH with M4L, F33Y, K40R, N57G, T104I
# VL: B3 VL with A5T, T14S, S32N, N55K, L101F
# B8: HCV 208A-983 (antibody, V domains shown)
# VH: B3 VH with F33Y, I34F, N59I, S75A, Y80F, F83L, T88I
# VL: B3 VL with A5T, T14N, V30L, L101F, E110A
# B9: HCV 208A-638 (antibody, V domains shown)
# VH: QGQLQQPGAEFVKPGASLKLSCRASGYTFTSYWIHWVKQRPGQGLEWIGEVDPSDSYINQNEKFRGKATLTVDKSSSTAYMQLGSLTSEDSAVYYCARHYYGVLDSWGQGTALTVSS
# VL: QIVLTQSPTIMSASLGERVTMTCTASSSVSSSYLHWFQQKPGSSPKLWIYSTSNLASGVPPRFSGSGSGTSYSLSISSVEAEDVATYYCLQFHRSPWTFGGGAKLEIKR
# B10: HCV 208B-174 (antibody, V domains shown)
# VH: EVKLEESGGGLVQPGGSMKLSCVASGFSFSSYWMSWVRQSPEKGLDWVAEIRLRSDNYATHYAESVKGRFTISRDDSISRLYLQMNTLRAEDTGIYYCTWMTYWGQGTLVTVSA
# VL: QNVLTQSPAIMSASPGEKVTMSCSASSSVTYMFWYQLKPESSPRLLIYDTSNLASGVPVRFSGSGSGTSYSLTISRMEAEDAATYYCQEWSSYPLTFGAGTKLDLKR
# B11: HCV 208B-589 (antibody, V domains shown)
# VH: QVQLQQSGAGLAKPGASVKMSCKASGYTFTANKMHWAKQRPGQGLEWIGYIDPSSGYTEYNHKIQDKATLTADTSSSTAYMQLSSLTFEDSAVYYCTNFAYWGQGTLVTVSA
# VL: DIVMTQTPLTLSVTIGQPASISCKSSQSLLFTNGKTYLNWFLQRPGQSPKRLIYLLSKLDSGVPDRFSGSGSGTDFTLKISRVEAEDLGVYYCLQSTYFPLTFGAGTKLELKR
# B12: HCV 208B-547 (antibody, V domains shown)
# VH: B11 VH with G10E, A31S, H62Q, Q65K, T74K, F88S
# VL: EVVLTQSPAITAASLGQKVTITCRASSSVSYMHWYRQKSGTSPQPWIYEISTLASGVPTRFRASGSGTSYSLTISSMEAEDAAIYYCQQWNYPLTFGAGTKLELKR
# B13: HCV 208B-189 (antibody, V domains shown)
# VH: QVHLQQSGAELAKPGASVQMSCKASGYTFTANKMHWARQRPRQGLEWIGYIDPASGYTEYNQKIKDRATLTADKSSSTAYMQLSSLTSEDSAVYYCTNFAYWGQGTLVTVST
# VL: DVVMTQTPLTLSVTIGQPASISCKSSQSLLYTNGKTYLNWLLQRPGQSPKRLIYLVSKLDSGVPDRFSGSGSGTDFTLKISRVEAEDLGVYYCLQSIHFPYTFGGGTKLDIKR
# B14: HCV 208B-560 (antibody, V domains shown)
# VH: EVQLQQSGPELEKPGASVKISCKTSGYTFTEYAMHWVKQSHGMSLEWIGGINPSNGNAIYNQIFKDKATLTVDRSSSTAYMGLRSLTFGDSGVYFCVRRQLDFFDYWGQGASLTVSS
# VL: DIVVTQSPASLAVSLGQRATISCRASQSVSTSRYSYLHWYQQKPGQPPKLLIKYASNLESGVPARFSGSGSGTDFTLNIHPVGEEDTATYYCQHSWEFPFTFGSGTKLEIKR
# B15: HCV 208A-1064 (antibody, V domains shown)
# VH: EVQLQQSGPELVKPGASVKISCKTSGYTFTEYAMHWMKQSHGKSLEWIGGINPTNGDTIYNQKFKDKAKLTVDRSSSTAYMELRSLTSDDSALFYCARRELDYFASWGQGTTLTVSS
# VL: B14 VL with V4L, A12I, R18T, Y34F, Y40I, A64V, G83E, Y91F, E109K
# B16: HCV 208A-920 (antibody, V domains shown)
# VH: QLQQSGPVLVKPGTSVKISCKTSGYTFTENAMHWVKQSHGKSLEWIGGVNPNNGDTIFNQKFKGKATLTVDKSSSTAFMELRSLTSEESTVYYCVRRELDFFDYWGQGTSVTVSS
# VL: B14 VL with V4L, L37M, G83A, T89A
# B17: HCV 208A-830 (antibody, V domains shown)
# VH: EVRLQQPGPEVEKPGASVKISCKTSGYTFTEYAIHWVKQSHGESLEWIGGINPSNGDPIYNQIFKDKATLTVDRSSNTAYMGLRSLTVGDSGVYFCVRRQLDYFDFWGQGASLTVSS
# VL: B14 VL with V4L, A25S, T87P
# B18: HCV 208A-133 (antibody, V domains shown)
# VH: QLQQSGPVLVGPGASVMISCKTSGYTFTENAMHWVEQSHGKSLEWIGGVNPNNGDTIFNQKFKGKATLTVDKSSSTAFMEFRSLTSEESTVYYCVRRELDFFDYWGQGTSVTVSS
# VL: B14 VL with V4L, L37M, G83A
# B19: HCV 208B-556 (antibody, V domains shown)
# VH: B18 VH with G11K, E36K
# VL: B14 VL with V4L, L37M, G83A
# B20: HCV 208A-605 (antibody, V domains shown)
# VH: B14 VH with M34I
# VL: B14 VL
# B21: HCV 208A-159 (antibody, V domains shown)
# VH: B18 VH with V8A, L9Q, G11K, E36K, G64D, T67A, F81L
# VL: B14 VL with V4L, L37V, S56A, G83A, T87A, T89A
# B22: HCV 208A-334 (antibody, V domains shown)
# VH: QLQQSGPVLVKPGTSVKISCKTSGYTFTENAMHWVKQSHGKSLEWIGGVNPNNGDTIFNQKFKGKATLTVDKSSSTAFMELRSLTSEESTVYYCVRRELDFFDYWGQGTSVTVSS
# VL: B14 VL with V4L, L37M, G83A, T89A, E97G
# B23: HCV 208B-251 (antibody, V domains shown)
# VH: B18 VH with G11K, M17K, E36K, F58Y, F81L, T90P, Y93F
# VL: B14 VL with V4L, Q17K, R18K, L37M, Q46H, G83A, T89A
# B24: HCV 208B-1094 (antibody, V domains shown)
# VH: B15 VH with K63R
# VL: DIVLTQSPASLIVSLGQTATISCRASQSLSTSRFSYVHWIQQKPGQPPKLLIKYASNLESGVPVRFSGSGSGTDFTLNIHPVEEEDTATYFCQHSWEFPFTFGSGTKLKIKR
# B25: HCV 208A-222 (antibody, V domains shown)
# VH: B14 VH with K19R, M43K, S54N, F103Y
# VL: B14 VL
# Molecular target: HCV Core 134-171-TT peptide (ALRZ-9 peptide) (HCV-1)
# Test: SPR, captured mAb;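 further: Anti-HCV Core mAbs from hybridoma supernatants held on a rabbit anti-mouse IgG CM5 surface, peptide flowed over 3 min then 4 min dissociation, duplicate concentrations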
# Method: First, after pre-treating a CM5 Series S biosensor chip (GE Healthcare) with duplicate injections of 100 mM HCl, 50 mM NaOH, and 0.1% SDS, a rabbit anti-mouse IgG Capture Biosensor was created by amine-coupling rabbit anti-mouse IgG antibody (GE Healthcare, Piscataway, N.J.) on Spots 1, 2, 4, and 5 in all four flow cells of the biosensor chip via EDC/NHS/ethanolamine chemistry provided in an Amine Coupling Kit (GE Healthcare). Clarified anti-HCV Core antibody exhausted hybridoma supernatants and HCV Core peptide were diluted into a filtered buffer composed of 10×HBS-EP+ buffer (GE Healthcare; hereinafter "running buffer") diluted 10-fold into distilled H_2O, supplemented with 0.1% BSA and 0.1% CM-Dextran, and 0.2 μm filtered. Each HCV Core antibody supernatant was diluted 1:1 with running buffer and 0.2 μm filtered again. […] All antigen solutions were 0.2 μm filtered prior to use.
# After all the spots contained captured antibody, the flow rate was increased to 30 μL/minute and the biosensor was equilibrated at this new flow rate for 2 minutes; then, a 3 minute injection (90 μL) of HCV Core peptide followed by 4 minutes of running buffer. All biosensor surfaces were regenerated with one 30 μL injection of 10 mM glycine, pH 1.7 (GE Healthcare), at a flow rate of 10 μL/minute. All concentrations were tested in duplicate.
Binder,Kd [nM],koff [s⁻¹],kon [M⁻¹ s⁻¹]
B1,0.16,0.00034,2.2e+06
B2,2.2,0.0024,1.1e+06
B3,0.52,5.4e-05,100000
B4,0.25,5.5e-05,220000
B5,15,0.014,1e+06
B6,2.1,3.8e-05,18000
B7,96,0.00025,2200
B8,0.46,4.6e-05,97000
B9,0.2,0.00053,2.7e+06
B10,0.25,0.00018,760000
B11,0.63,0.00061,960000
B12,3.2,0.0049,1.6e+06
B13,0.17,0.00015,880000
B14,0.23,0.00026,1.1e+06
B15,0.21,0.00034,1.6e+06
B16,0.39,0.00056,1.5e+06
B17,0.16,0.00054,3.4e+06
B18,0.41,0.0005,1.2e+06
B19,0.4,0.0006,1.5e+06
B20,0.43,0.00037,870000
B21,0.45,0.00065,1.4e+06
B22,0.34,0.00057,1.7e+06
B23,0.58,0.00065,1.1e+06
B24,0.16,0.00025,1.5e+06
B25,0.31,0.00035,1.1e+06
